The values that follow come from paper PMC5632219.

For this assay, the target named is HIV-1 glycoprotein gp120 (HIV-1) (UniProt P04578). Briefly: ELISA. Background: ELISA stands for enzyme-linked immunosorbent assay.

Regarding recombinant 2G12 mAb (IgG1) (antibody), the EC50 (as a rule, the concentration that produces a half-maximal response) worked out at 2.3 pM. This lies in the picomolar range.
